Measurements published in the DeepSol protein solubility set.

test: soluble on expression in E. coli; label from the status in PepcDB or PDB records

Sequence	soluble on expression in E. coli
MSTDEERIYSIALTQIPGVGHIGAKRLVDGMGSATDVFRYRTELPDRLPGVNRAVVAALDSPQALKRAEQEYEFARNNRISCFTLADEDYPSRLRECDDAPVVLFFKGKANLNALHIINMVGTRNATDYGKHICVSFLQELQMLCPDVLVVSGLAYGIDINAHRSALSVELPTVGVLAHGLDRIYPSLHRKTAIDMLRQGGLLTEFLSGTNPDKHNFISRNRIVAGISDATIVVESAAKGGSLITADIAGSYHRDCFAFPGRVTDEYSKGCNQLIQDNKAVLLESASDFVKTMGWDSDLKSVKPETVQRNLFPDLSAEELRIVDILGKLGDLQINALMVQADIPINKISAILFELEMKGVIRVLAGGVYQLLR	not soluble
MGSDKIHHHHHHMIMQLDCALYQHPKLITVFGGSGFVGRHVVEALTKRGYRVRIAVRSPQKAYYMLQIGEVGQTQMLRTDIKCRASVARALLGSDGAVFLPGSLAQANQPNFQKTQIEGAQNVSELTAEAGIPLIYMSALVANKNASFLYARVKSMSEEIIHNEHPQAIIMRPSIIFGPEDCFFNNLANLSCFLPIIPLFGGGQSKLQPVYVGDVAEFIVRALEGQVISGKSYDLGGPQIITFQNVLEYILKIIHRKKTILSMPLSAGLFIGGLLGTIGKLPLAPTLVTASQIRFLQIDNIVSQEAIENGYTLEGVGITPKAMAALLPSYLWRFRPHGQFSRNLPA	not soluble
MSHLNYNHLYYFWMVCKQGSVTKAAEALFLTPQTVTGQIKALEDRLDGKLTKRNGRNIEPTELGQLIYKYADRMFGLSYEMLDIVNYSQQANVLFDVGVADALSKRLVSKVLSTTVPEDASIHLRCFESTHELLLEQLSQHKLDMILSDCPVDSSQNSGLFSKKLGECEMSFFCSKELKGVTFPEVLEKHKVLIPGSRTSMGRKVVQWCDQQGVTPNILGEFDDVALMKAFARENNAVFLAPSVYMNEADSDLSLHKIADVRDLKEEYYVIFAERMIQHPAVKSICEADFSHLFDF	not soluble
MNTKKEIKFIEEIKGLVPKKLGKIYTSSIIEKDSKRLTINLKKVDALPKCGLIGAPDVCVKITLTQGAKTQTKSSRVIKNTCSAVYNEAVMFLCGTSKNDLAQTSIVISVHDAQRTCTGDDTIGCAYLGIGAVDKSEIDQWKGTTEHLGKEYKGNHTLKAPITAPPVHVAEANDDVAADDDD	soluble
MCDKSKTVLDYTIEFLDKYIPEWFETGNKCPLFIFFSGPQGSGKSFTSIQIYNHLMEKYGGEKSIGYASIDDFYLTHEDQLKLNEQFKNNKLLQGRGLPGTHDMKLLQEVLNTIFNNNEHPDQDTVVLPKYDKSQFKGEGDRCPTGQKIKLPVDIFILEGWFLGFNPILQGIENNDLLTGDMVDVNAKLFFYSDLLWRNPEIKSLGIVFTTDNINNVYGWRLQQEHELISKVGKGMTDEQVHAFVDRYMPSYKLYLNDFVRSESLGSIATLTLGIDSNRNVYSTKTRCIE	soluble
MKKILLLILITGLFSFGNSKNKIPTRKFTSVKISGPRYRLEGAFGILSSKENSSYMNNRFISNSISLLSEWKVQVNEKIDATFGPKVTLDFSFSIFKGLYTYKPNLNLGAEANFNYRIKEKMKVYGGVEIGTGVGISIENANIHKTILTTISKISVGVKINDKYNIGVYLGNNIKGMLGIEAGYTF	not soluble
MKLAVLGTGMIVKEVLPVLQKIDGIDLVAILSTVRSLTTAKDLAKAHHMPLATSKYEAILGNEEIDTVYIGLPNHLHFAYAKEALLAGKHVICEKPFTMTAGELDELVVIARKRKLILLEAITNQYLSNMTFIKEHLDQLGDIKIVECNYSQYSSRYDAFKRGDIAPAFNPKMGGGALRDLNIYNIHFVVGLFGRPKTVQYLANVEKGIDTSGMLVMDYEQFKVVCIGAKDCTAEIKSTIQGNKGSLAVLGATNTLPQVQLSLHGHEPQVINHNKHDHRMYEEFVAFRDMIDQRDFEKVNQALEHSRAVMAVLERAVHS	not soluble
MSLLEVKNLRIEYPSRHGVHAAVKSLTLDIQRGEIVGVVGESGAGKSTVGNAVIDLLSPPGTIAGGEVYLNGEKISGLSPQAMREVRGSKIGFIFQDPMTSLNPLFTVEHQLTETIHANMQVSAEEAYQRALSLMKQVGIPQPENRLKQYPHQFSGGMRQRVVIAIALAGEPDLIIADEPTTALDVSIQDQILNLIRELCKKNNVGCMLVTHDMGVVSNVTDRVAVMYRGDLVEFGPTAKVLGTPEHPYTRSLISAVPRSDRKLDRFPLVSYIEEAKELKPLDVKSHWLGQSQDHRKYTGPLLKVENVNLRFVTKDSLFESRREYVQASNNVSFAVHEGETFGLVGESGSGKSTIARVIAGLYQPNAGRVTFEGIDLTALKSEHERRPLRRQMQMVFQNPYTSMNPRMKIFDIIAEPIRFHKLTRSESETRQIVNDLLEHVGLGKMAGLKYPHEFSGGQRQRISIARALATRPRLLICDEPTSALDVSVQAQILNLLKDLQDELNLTMLFISHDLPVIRQMCDRVGVMQMGTLLEVAPTEQLFTDPQHEYSKKLISLMPEFTGLRESTTAA	not soluble
TTLASIGKDIIEDADGIAMPHQWLEGNLPVSAKCTVCDKTCGSVLRLQDWRCLWCKAMVHTSCKESLLTKC	soluble
MSEFLTHPFEPFFDKDSKILILGSFPSIKSRQDGFYYQHPRNRFWPILETLFNAKLENITEQQAFLRKKHIALWDVLQSCKIKNSDDKTISYAKANDLNLILSQTKIQAIFTTGQSAYRFFVKFHPRLEAIALPSTSPANLNFSFEQLLQNYEIIKKFTKLEHHHHHH	soluble
MSLMVIRPVERSDVSALMQLASKTGGGLTSLPANEATLSARIERAIKTWQGELPKSEQGYVFVLEDSETGTVAGICAIEVAVGLNDPWYNYRVGTLVHASKELNVYNALPTLFLSNDHTGSSELCTLFLDPDWRKEGNGYLLSKSRFMFMAAFRDKFNDKVVAEMRGVIDEHGYSPFWQSLGKRFFSMDFSRADFLCGTGQKAFIAELMPKHPIYTHFLSQEAQDVIGQVHPQTAPARAVLEKEGFRYRNYIDIFDGGPTLECDIDRVRAIRKSRLVEVAEGQPAQGDFPACLVANENYHHFRVVLVRTDPATERLILTAAQLDALKCHAGDRVRLVRLCAEEKTAEGHHHHHH	soluble
SASMAGPDHLFNLRNHFYLGAYQAAINNSEIPNLSQEDIVERDCLVHRAYIALGSYQLVISEIDEAAATPLQAVKLLAMYLSSPENKESTISSLREWLADPTVGNNAIIRLIAGTIFMHEEDYNEALKHTHSGGTMDLHALNVQIFIKMHRSDFAEKQLRVMQQIDEDHTLTQLASAWLNLAVGGSKIQEAYLIFQDFSEKYPMTSLILNGKAVCCMHMGNFEEAETLLLEALNKDAKDPETLANLVVCSLHVGKSSSRYLNQLKLSHPEHVLVKRAASAEDNFERALQSFA	soluble
MAHHHHHHMLCLVRAAEPKPYTALSPEALYEAVQPHDHTLRPSPFIAHQALMDFYKACDGYYGVNREEVDVQQLTSFEHKKTHGGASSGNNSGSNSGATLSSLLSGSASAAPSSSLSAAAGAPPLPPLPSPDDPNLAEKLNDYRIAQLRRNAQHVDNTVYHAHNSSNGGSNSNVANAGSSGVCHFYRTPEGCQRGAACPFTHLDKHGQPVNRVAKS	soluble
KTEIHGDSTKATLEEGQQLTLTFISTKLDVAVGSCHSLVANFLDGFLKFQTGSNSAFDVVEVEEPAGPAVLTIGLGHKGRLAVVLDYTRLNAALGSAAYVVEDSGCSSSEEVSFQGVGSGATLVVTTLGESPTAVSA	soluble
MDNPEPARIVRLMEHRADIAIVGGGLNGPALALALAQSGQSVVLVDALPDPLRTDAEFDGRAYALALASQRLLAAVGVWDHVAEAAQPMLEIKVSDGHAGAGPSPFFLHFDHAEIEEGPMGYMVEDRYLRRALLAAMEDAPRITRLNGAAVTAQQTDGTGVVLTLADGSHLRAGLVVGCDGRKSGTATRAGIKRTGWDYGQTALVCAIAHERPHHGIAHQFFMPPGPLAILPLPGNRSSIVWSERTEAAARINALPEAEYLEILRPRFGDFLGEIRLEGARFTYPLNLTVANAFVAERLALVGDAAHGMHPIAGQGLNAGLRDVGALAEVLILAARRGEDIGAAPVLERYQQWRRFDTATLALATDAFNRLFSNDNPLLRLGRDVGMGVIGAFPGLRRGFVREATGLTGDLPKLMQGRAILEHHHHHH	not soluble
MSLKYKRIVFKVGTSSITHSDGSLSRGKIQTITCQLAALHHAGHELVLVSSGAVAAGFGALGFKKRPVKIADKQASAAVGQGLLMEEYTANLSSDGIVSAQILLSRADFADKRRYQNAGGALSVLLQRRAVPIINENDTVSVEELKIGDNDTLSAQVAAMIQADLLVLLTDIDGLYTGNPNSNPDAVRLDKIEHINHEIIEMAGGSGSANGTGGMLTKIKAATIAAESGVPVYICSSLKPDALAEAAEHQADGSFFVPRAKGLRTQKQWLAFYSESRGSVYVDEGAEHALSEQGKSLLMSGIAGIEGHFSRMDTVTVYSKATKQPLGKGRVLFGSAAAEDLLKSRKAKGVFIHRDDWISITPEIRLLLTEFEGHHHHHH	soluble
MGSDKIHHHHHHMKQAEEVIHPEALSGTGIMTISREPVVFHCNHYNRFLQLVIEDCHYIDREPILVGSATEVSFRQLRTAFREHPEWSVANRLKYAESMYRFCGFGDLPLGALPHSAEPEFVLVENHSHYGTALRLNYGKRRWPGEHFDLGYAIGALSAIYGQPYGGKIDATALSTGAETTRFHLHLRNSGDRFPLDIPDIPQAVLPQGADQVPPRHIGLHIDEDAIMTAVGTLPLTGDPDGLIPAFGVYLTRHYADYYNLVSFRFERALQEALNTHRYLGEMLWYEYPTLFYYKEKFEHLQGQALARTLLMEAGHICGFNTMGGIMRSDPWYQLIVPQLQCREDWLSGIIACINALGWGVWRIQEIIPNERLILRAWYPYESLGHLRAFGPADHPIDYLMTGIGSSLMNLLYTADITTRPDLTLEFYYQVNRSKAGFWARQTRCMAMGDPYSEVVVERNIL	not soluble
MDVTFLTKNVQINGTQFKILLQNGQGECALIALANVLLISPAHARYAQEISRLVRGKETVTLNELVQTLADMGVQNPNGTDVDKQQLLQILPQLYSGLNINPEFNGSFEDGVEMSIFRLYNVGIVHGWIIDGDNDPNSYEHVSKYSYMGAQKVLVQSYEIQKNNAQFENSEQIQSDAPYLKSFLARSATQLTEYGLTHLREILVERSYAVLFRNDHFCTLYKNNGELFTLVTDPTYRNRKDINWQSLKSVNGSQDSYYTGNFIPTSLERTETTATGQNESYISNPFSDQNTGHVTSNQVNSGASGVQQIEDDEELARRLQEQEDMRAANNMQNGYANNGRNHQRERFERPEKNSKKNKFLPFNGSNKEKKRDKLKKNCVIM	soluble
